Patent publication US20240084011A1 (NANTBIO, published 2024)

T1: recombinant human CTLA-4 protein (human, UniProt P16410 36-161)
T1 construct: Recombinant protein used as analyte in SPR/Octet; also called hCTLA-4; CD152
T1 sequence (looked up): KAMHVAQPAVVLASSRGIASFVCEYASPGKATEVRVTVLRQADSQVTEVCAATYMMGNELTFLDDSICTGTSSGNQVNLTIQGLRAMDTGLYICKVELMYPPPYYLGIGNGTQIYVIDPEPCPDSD


Assays:
[1] = molecular target: T1, recombinant human CTLA-4 protein; test: SPR (Pioneer FE) or Octet (Red96e), 37 C; IgG captured by anti-human Fc or AHC sensor, hCTLA-4 as analyte
Description: (§1) All values shown in Table 5 are ×10⁻⁹ M. Antibodies were captured on the chip surface using anti-human Fc antibody (SPR) or AHC sensor (Octet).

[2] = molecular target: T2, recombinant mouse CTLA-4 protein (mouse, UniProt P09793 36-161); test: SPR (Pioneer FE) or Octet (Red96e), 37 C; IgG captured by anti-human Fc or AHC sensor, mCTLA-4 as analyte
T2 construct: Recombinant protein used as analyte in SPR/Octet; also called murine CTLA-4; mCTLA-4
Description: as §1

[3] = molecular target: T2, recombinant mouse CTLA-4 protein; test: SPR (Pioneer FE) or Octet (Red96e), 25 C; IgG captured by anti-human Fc or AHC sensor, mCTLA-4 as analyte
Description: as §1

[4] = molecular target: T1, recombinant human CTLA-4 protein; test: SPR (Pioneer FE) or Octet (Red96e), 25 C; IgG captured by anti-human Fc or AHC sensor, hCTLA-4 as analyte
Description: as §1

Kd [1]	Kd [2]	Kd [3]	Kd [4]	Binder
440 pM	530 pM	390 pM	460 pM	IgG antibody 78-8D22 HC / 78-8 LC (antibody, V domains shown) VH: EVQLVESGGGLVQPGGSLRLSCAASGFTFSSYVMHWVRQAPGKGLEWVSAISWSGSGTYYADSVKGRFTISRDNSKNTLYLQMNSLRAEDTAVYYCARGRLFGLARYGEAFDVWGQGTLVTVSS VL: DIQMTQSPSSLSASVGDRVTITCQASKDISNYLNWYQQKPGKAPKLLIYDASNLETGVPSRFSGSGSGTDFTFTISSLQPEDIATYYCQQFNSFPLTFGQGTKVEIKR
–	330 pM	340 pM	–	IgG antibody 78-24D17V HC / 78-24 LC (antibody, V domains shown) VH: EVQLVESGGGLVQPGGSLRLSCAASGFTFSSSSMHWVRQAPGKGLEWVSGISGSGGSTSYADSVKGRFTISRDNSKNTLYLQMNSLRAEDTAVYYCARYLMSFNLVRTSWFDVWGQGTLVTVSS VL: DIQMTQSPSSLSASVGDRVTITCQASQDISNYLNWYQQKPGKAPKLLIYDASNLETGVPSRFSGSGSGTDFTFTISSLQPEDIATYYCQQGDAWPWTFGQGTKVEIKR
1300 pM	270 pM	190 pM	1400 pM	IgG antibody 78-24D22V HC / 78-24 LC (antibody, V domains shown) VH: EVQLVESGGGLVQPGGSLRLSCAASGFTFPSYSMHWVRQAPGKGLEWVSGISGSGWSTSYADSVKGRFTISRDNSKNTLYLQMNSLRAEDTAVYYCARDLMAFNLVRAGGFDVWGQGTLVTVSS VL: DIQMTQSPSSLSASVGDRVTITCQASQDISNYLNWYQQKPGKAPKLLIYDASNLETGVPSRFSGSGSGTDFTFTISSLQPEDIATYYCQQGDAWPWTFGQGTKVEIKR

The next lines start with the binder.

Binder	Kd [1]	Kd [2]	Kd [3]	Kd [4]
IgG antibody 78-8D2 HC / 78-8 LC (antibody, V domains shown) VH: EVQLVESGGGLVQPGGSLRLSCAASGFTFSSYVMHWVRQAPGKGLEWVSAITWSGRGTYYADSVKGRFTISRDNSKNTLYLQMNSLRAEDTAVYYCARGRLFGLALYGEAFDVWGQGTLVTVSS VL: DIQMTQSPSSLSASVGDRVTITCQASKDISNYLNWYQQKPGKAPKLLIYDASNLETGVPSRFSGSGSGTDFTFTISSLQPEDIATYYCQQFNSFPLTFGQGTKVEIKR	670 pM	400 pM	320 pM	410 pM
IgG antibody 78-24D1V HC / 78-24 LC (antibody, V domains shown) VH: EVQLVESGGGLVQPGGSLRLSCAASGFTFTSYSMHWVRQAPGKGLEWVSGISGSGRSTSYADSVKGRFTISRDNSKNTLYLQMNSLRAEDTAVYYCARDLMAFNLVRAGGFDVWGQGTLVTVSS VL: DIQMTQSPSSLSASVGDRVTITCQASQDISNYLNWYQQKPGKAPKLLIYDASNLETGVPSRFSGSGSGTDFTFTISSLQPEDIATYYCQQGDAWPWTFGQGTKVEIKR	1500 pM	230 pM	180 pM	1600 pM
IgG antibody 78-8D4 HC / 78-8 LC (antibody, V domains shown) VH: EVQLVESGGGLVQPGGSLRLSCAASGFTFSSYVMHWVRQAPGKGLEWVSAITWSGGGTYYADSVKGRFTISRDNSKNTLYLQMNSLRAEDTAVYYCARGRLFGLVRYGEAFDVWGQGTLVTVSS VL: DIQMTQSPSSLSASVGDRVTITCQASKDISNYLNWYQQKPGKAPKLLIYDASNLETGVPSRFSGSGSGTDFTFTISSLQPEDIATYYCQQFNSFPLTFGQGTKVEIKR	390 pM	270 pM	270 pM	390 pM
